Data taken from FireProtDB (doi:10.1016/0022-2836(92)90564-z).
Where “and” joins values, the source holds several entries; their conditions need not be identical. Identical values can stand only once.

B1: Ribonuclease, P00648 (parent)
chain: MMKMEGIALKKRLSWISVCLLVLVSAAGMLFSTAAKTETSSHKAHTEAQVINTFDGVADYLQTYHKLPDNYITKSEAQALGWVASKGNLADVAPGKSIGGDIFSNREGKLPGKSGRTWREADINYTSGFRNSDRILYSSDWLIYKTTDHYQTFTKIR

Variants of: B1
Details: Bacillus amyloliquefaciens; pH 6.3; 25 °C; Urea; Fluorescence; MES 1.00 M; NaCl 613 mM; reversible: yes; structure 1BNI; whole UniProt chain shown

| Variant | ddG of mutation (higher = less stable) |
| --- | --- |
| MMKMEGIALKKRLSWISVCLLVLVSAAGMLFSTAAKTETSSHKAHTEAQVIATFDGVADYLQTYHKLPDNYITKSEAQALGWVASKGNLADVAPGKSIGGDIFSNREGKLPGKSGRTWREADINYTSGFRNSDRILYSSDWLIYKTTDHYQTFTKIR [N52A] | 2.06 kcal/mol |
| MMKMEGIALKKRLSWISVCLLVLVSAAGMLFSTAAKTETSSHKAHTEAQVINTFDGVADYLQTYHKLPDNYITKSEAQALGWVASKGNLADVAPGKSIGGDIFSNREGKLPGKSGRTWREADINYTSGFRASDRILYSSDWLIYKTTDHYQTFTKIR [N131A] | 2.24 kcal/mol |
| MMKMEGIALKKRLSWISVCLLVLVSAAGMLFSTAAKTETSSHKAHTEAQVINTFDGVADYLQTYHKLPDNYITKSEAQALGWVASKGNLADVAPGKSIGGDIFSNREGKLPGKSGRTWREADVNYTSGFRNSDRILYSSDWLIYKTTDHYQTFTKIR [I123V] | 0.88 kcal/mol |
| MMKMEGIALKKRLSWISVCLLVLVSAAGMLFSTAAKTETSSHKAHTEAQVINTFDGVADYLQTYHKLPDNYITKSEAQALGWVASKGNLADVAPGKSIGGDIFSNREGKLPGKSGRTWREADANYTSGFRNSDRILYSSDWLIYKTTDHYQTFTKIR [I123A] | 2.04 kcal/mol and 1.16 kcal/mol |
| MMKMEGIALKKRLSWISVCLLVLVSAAGMLFSTAAKTETSSHKAHTEAQVINTFDGVADYLQTYHKLPDNYITKSEAQALGWVASKGNLADVAPGKSIGGDIFSNREGKLPGKSGRTWREADINYTSGFRNSDRILYSADWLIYKTTDHYQTFTKIR [S139A] | 2.74 kcal/mol |
| MMKMEGIALKKRLSWISVCLLVLVSAAGMLFSTAAKTETSSHKAHTEAQVINTFDGVADYLQTYHKLPDNYITKSEAQALGWAASKGNLADVAPGKSIGGDIFSNREGKLPGKSGRTWREADINYTSGFRNSDRILYSSDWLIYKTTDHYQTFTKIR [V83A] | 1.34 kcal/mol |
| MMKMEGIALKKRLSWISVCLLVLVSAAGMLFSTAAKTETSSHKAHTEAQVINTFDGVADYLQTYHKLPDNYITKSEAQALGWVASKGDLADVAPGKSIGGDIFSNREGKLPGKSGRTWREADINYTSGFRNSDRILYSSDWLIYKTTDHYQTFTKIR [N88D] | 2.51 kcal/mol |
| MMKMEGIALKKRLSWISVCLLVLVSAAGMLFSTAAKTETSSHKAHTEAQVVNTFDGVADYLQTYHKLPDNYITKSEAQALGWVASKGNLADVAPGKSIGGDIFSNREGKLPGKSGRTWREADINYTSGFRNSDRILYSSDWLIYKTTDHYQTFTKIR [I51V] | 0.67 kcal/mol |
| MMKMEGIALKKRLSWISVCLLVLVSAAGMLFSTAAKTETSSHKAHTEAQVANTFDGVADYLQTYHKLPDNYITKSEAQALGWVASKGNLADVAPGKSIGGDIFSNREGKLPGKSGRTWREADINYTSGFRNSDRILYSSDWLIYKTTDHYQTFTKIR [I51A] | 1.5 kcal/mol and 0.83 kcal/mol |
| MMKMEGIALKKRLSWISVCLLVLVSAAGMLFSTAAKTETSSHKAHTEAQVINTFDGVADYLQTYHKLPDNYITKSEAQALGWVASKGNLADVAPGKSIGGDTFSNREGKLPGKSGRTWREADINYTSGFRNSDRILYSSDWLIYKTTDHYQTFTKIR [I102T] | 1 kcal/mol |
| MMKMEGIALKKRLSWISVCLLVLVSAAGMLFSTAAKTETSSHKAHTEAQVINTFDGVADYLQTYHKLPDNYITKSEAQALGWVASKGNLADVAPGKSIGGDAFSNREGKLPGKSGRTWREADINYTSGFRNSDRILYSSDWLIYKTTDHYQTFTKIR [I102A] | 1.28 kcal/mol |
| MMKMEGIALKKRLSWISVCLLVLVSAAGMLFSTAAKTETSSHKAHTEAQVINTFDGVADYLQTYHKLPDNYITKSEAQALGWVASKGNLADVAPGKSIGGDIFSNREGKLPGKSGRTWREADINYTSGFRNSDRILYSSDWLAYKTTDHYQTFTKIR [I143A] | 2.37 kcal/mol |
| MMKMEGIALKKRLSWISVCLLVLVSAAGMLFSTAAKTETSSHKAHTEAQVINTFDGVADYLQTYHKLPDNYITKSEAQALGWVASKGNLADVAPGKSIGGDIFSNREGKLPGKSGRTWREADINYTSGFRNSDRIVYSSDWLIYKTTDHYQTFTKIR [L136V] | 0.03 kcal/mol |
| MMKMEGIALKKRLSWISVCLLVLVSAAGMLFSTAAKTETSSHKAHTEAQVINTFDGVADYLQTYHKLPDNYITKSEAQALGWVASKGNLADVAPGKSIGGDIFSNREGKLPGKSGRTWREADINYTSGFRNSDRITYSSDWLIYKTTDHYQTFTKIR [L136T] | 2.9 kcal/mol and 2.55 kcal/mol |
| MMKMEGIALKKRLSWISVCLLVLVSAAGMLFSTAAKTETSSHKAHTEAQVINTFDGVADYLQTYHKLPDNYITKSEAQALGWVASKGNLADVAPGKSIGGDIFSAREGKLPGKSGRTWREADINYTSGFRNSDRILYSSDWLIYKTTDHYQTFTKIR [N105A] | 2.17 kcal/mol |
| MMKMEGIALKKRLSWISVCLLVLVSAAGMLFSTAAKTETSSHKAHTEAQVINTFDGVADYLQTYHKLPDNYITKSEAQALGWVASKGNLADVAPGKSIGGDIFSNREGKLPGKSGRTWREADINYTSGFRNSDRALYSSDWLIYKTTDHYQTFTKIR [I135A] | 2.76 kcal/mol |

| Variant | ddG of mutation (higher = less stable) |
| --- | --- |
| MMKMEGIALKKRLSWISVCLLVLVSAAGMLFSTAAKTETSSHKAHTEAQVINTFDGVADYLQTYHKLPDNYITKSGAQALGWVASKGNLADVAPGKSIGGDIFSNREGKLPGKSGRTWREADINYTSGFRNSDRILYSSDWLIYKTTDHYQTFTKIR [E76G] | 1.9 kcal/mol |
| MMKMEGIALKKRLSWISVCLLVLVSAAGMLFSTAAKTETSSHKAHTEAQVINTFDGVADYLQTYHKLPDNYVTKSEAQALGWVASKGNLADVAPGKSIGGDIFSNREGKLPGKSGRTWREADINYTSGFRNSDRILYSSDWLIYKTTDHYQTFTKIR [I72V] | 1.18 kcal/mol |
| MMKMEGIALKKRLSWISVCLLVLVSAAGMLFSTAAKTETSSHKAHTEAQVINTFDGTADYLQTYHKLPDNYITKSEAQALGWVASKGNLADVAPGKSIGGDIFSNREGKLPGKSGRTWREADINYTSGFRNSDRILYSSDWLIYKTTDHYQTFTKIR [V57T] | 2.58 kcal/mol |
| MMKMEGIALKKRLSWISVCLLVLVSAAGMLFSTAAKTETSSHKAHTEAQVINTFDGAADYLQTYHKLPDNYITKSEAQALGWVASKGNLADVAPGKSIGGDIFSNREGKLPGKSGRTWREADINYTSGFRNSDRILYSSDWLIYKTTDHYQTFTKIR [V57A] | 3.63 kcal/mol |
| MMKMEGIALKKRLSWISVCLLVLVSAAGMLFSTAAKTETSSHKAHTEAQVINTFDGVADYLQTYHKLPDNYITKSEAQALGWVASKGNLADVAPGKSVGGDIFSNREGKLPGKSGRTWREADINYTSGFRNSDRILYSSDWLIYKTTDHYQTFTKIR [I98V] | 1.85 kcal/mol |
| MMKMEGIALKKRLSWISVCLLVLVSAAGMLFSTAAKTETSSHKAHTEAQVINTFDGVADYLQTYHKLPDNYITKSEAQALGWVASKGNLADTAPGKSIGGDIFSNREGKLPGKSGRTWREADINYTSGFRNSDRILYSSDWLIYKTTDHYQTFTKIR [V92T] | 2.44 kcal/mol |
| MMKMEGIALKKRLSWISVCLLVLVSAAGMLFSTAAKTETSSHKAHTEAQVINTFDGVADYLQTYHKLPDNYITKSEAQALGWVASKGNLADAAPGKSIGGDIFSNREGKLPGKSGRTWREADINYTSGFRNSDRILYSSDWLIYKTTDHYQTFTKIR [V92A] | 1.83 kcal/mol |
| MMKMEGIALKKRLSWISVCLLVLVSAAGMLFSTAAKTETSSHKAHTEAQVINTFDGVADYLQTYHKLPDNYITKSEAQALGWVASKGNLADVAPGKSIGGDIFSNREGKLPGKSGRTWREADINYTSGFRNSDRILYSSDWLIYKTTDHYQVFTKIR [T152V] | 2.25 kcal/mol |
| MMKMEGIALKKRLSWISVCLLVLVSAAGMLFSTAAKTETSSHKAHTEAQVINTFDGVADYLQTYHKLPDNYITKSEAQALGWVASKGNLADVAPGKSIGGDIFSNREGKLPGKSGRTWREADINYTSGFRNSDRILYASDWLIYKTTDHYQTFTKIR [S138A] | 1.93 kcal/mol |
| MMKMEGIALKKRLSWISVCLLVLVSAAGMLFSTAAKTETSSHKAHTEAQVINTFDGVADYLQTYHKLPDNYITKSEAQALGWVASKGNLADVAPGKSIGGNIFSNREGKLPGKSGRTWREADINYTSGFRNSDRILYSSDWLIYKTTDHYQTFTKIR [D101N] | 2.42 kcal/mol |
| MMKMEGIALKKRLSWISVCLLVLVSAAGMLFSTAAKTETSSHKAHTEAQVINTFDGVADYLQTYHKLPDNYITKSEAQALGWVASKGNLADVAPGKSIGGAIFSNREGKLPGKSGRTWREADINYTSGFRNSDRILYSSDWLIYKTTDHYQTFTKIR [D101A] | 3.1 kcal/mol |
| MMKMEGIALKKRLSWISVCLLVLVSAAGMLFSTAAKTETSSHKAHTEAQVINTFDGVADYLQTYHKLPDNYITKSEAQALGWVASKGNLADVAPGKSIGGDIFSNREGKLPGKSGRTWREADIAYTSGFRNSDRILYSSDWLIYKTTDHYQTFTKIR [N124A] | 1.88 kcal/mol |
| MMKMEGIALKKRLSWISVCLLVLVSAAGMLFSTAAKTETSSHKAHTEAQVINTFDGVADYLQTYHKLPDNYITKSEAQALGWVASKGNLADVAPGKSIGGDIFSNREGKLPGKSGRTWREADINYTSGFRNSDRILYSSDWLIYKTTDHYQTFTKAR [I156A] | 2.22 kcal/mol and 1.4 kcal/mol |
| MMKMEGIALKKRLSWISVCLLVLVSAAGMLFSTAAKTETSSHKAHTEAQVINTFDGVADYLQTYHKLPDNYITKSEAQALGWVASKGNLADVAPGKSIGGDIFSNREGKLPGKSGRTWREADINYTSGFRNSDRILYSSDWLIYKTTDHYQTFTKVR [I156V] | 0.82 kcal/mol |
| MMKMEGIALKKRLSWISVCLLVLVSAAGMLFSTAAKTETSSHKAHTEAQVINTFDGVADYLQTYHKLPDNYITKSEAQALGWVASKGNLADVAPGKSIGGDIFSNREGRLPGKSGRTWREADINYTSGFRNSDRILYSSDWLIYKTTDHYQTFTKIR [K109R] | 0.43 kcal/mol |
